According to the RNAGym collection of RNA variant scans (doi:10.7554/elife.80360):

B1: HDV Ribozyme (parent)
chain: GGCCGGCAUGGUCCCAGCCUCCUCGCUGGCGCCGGCUGGGCAACAUUCCGAGGGGACCGUCCCCUCGGUAAUGGCGAAUGGGACCCA

Variants of: B1
Experiment: self-cleavage, relative activity (ratio to wild type); higher = more cleavage; co-transcriptional

Variant | self-cleavage
GGCCGGCAUGAUCCCAGCCUCCUCGCUGGCUCCGGCUGGGCAACAUUCCGAGGGGACCGUCCCCUCGGUAAUGGCGAAUGGGACCCA [G11A G31U] | 0.0475
GGCCGGCAUGAUCCCAGCCUCCUCGCUGGCGCCGGCUGGGCAACAUUCCGAGGGGACCGUCCGCUCGGUAAUGGCGAAUGGGACCCA [G11A C63G] | 0.514
GGCCGGCAUGAUCCCAGCCUCCUCGCUGGCGCCGGCUGGGCAACAUUCCGAGGGGACCGUCCACUCGGUAAUGGCGAAUGGGACCCA [G11A C63A] | 0.345
GGCCGGCAUUGUCCCAGCCUCCUCGCUGGCGCCGGCUGGGCAACAUUCCGAGGGGACCGUCCCCUCGGUAACGGCGAAUGGGACCCA [G10U U72C] | 0.193
GGCCGGCAUGAUCCCAGCCUCCUCGCUGGCGCCGGCUGGGCAACAUUCCGAGGGGACCGUCCCCUCGGUAAUGGCGAAUGGGACCAA [G11A C86A] | 0.535
GGCCGGCAUGAUCCCAGCCUCCUCGCUGGCGCCGGCUGGGCAACAUUCCGAGGGGACCGUCCCCUCGGUAAUGGCGAAUGGGACCGA [G11A C86G] | 0.306
GGCCGGCAUGCUCCCAGGCUCCUCGCUGGCGCCGGCUGGGCAACAUUCCGAGGGGACCGUCCCCUCGGUAAUGGCGAAUGGGACCCA [G11C C18G] | 0
GGCCGGCAUGAUCCCAGCCUCCGCGCUGGCGCCGGCUGGGCAACAUUCCGAGGGGACCGUCCCCUCGGUAAUGGCGAAUGGGACCCA [G11A U23G] | 0.13
GGCCGGCAUGAUCCCAGCCUCCUCGCUUGCGCCGGCUGGGCAACAUUCCGAGGGGACCGUCCCCUCGGUAAUGGCGAAUGGGACCCA [G11A G28U] | 0.0339
GGCCGGCAUGCUCGCAGCCUCCUCGCUGGCGCCGGCUGGGCAACAUUCCGAGGGGACCGUCCCCUCGGUAAUGGCGAAUGGGACCCA [G11C C14G] | 0
GGCCGGCAUGCUCCCAGCCUCCUCGCUGGCGCCGGCUGGGCAACUUUCCGAGGGGACCGUCCCCUCGGUAAUGGCGAAUGGGACCCA [G11C A45U] | 0.0554
GGCCGGCAUGAUCCCAGCCUCCUCGCUGGCGCCGCCUGGGCAACAUUCCGAGGGGACCGUCCCCUCGGUAAUGGCGAAUGGGACCCA [G11A G35C] | 0.0536
GGCCGGCAUGAUCCCAGCCUCCUCGCUGGCGCCGACUGGGCAACAUUCCGAGGGGACCGUCCCCUCGGUAAUGGCGAAUGGGACCCA [G11A G35A] | 0.272
GGCCGGCAUGAUCCCAGCCUCCUCGCUGGCGCCGGCUGGGCAACAUUCCGAGAGGACCGUCCCCUCGGUAAUGGCGAAUGGGACCCA [G11A G53A] | 0.437
GGCCGGCAUGAUCCCAGCCUCCUCGCUGGCGACGGCUGGGCAACAUUCCGAGGGGACCGUCCCCUCGGUAAUGGCGAAUGGGACCCA [G11A C32A] | 0.0231
GGCCGGCAUGAUCCCAGCCUCCUCGCUGUCGCCGGCUGGGCAACAUUCCGAGGGGACCGUCCCCUCGGUAAUGGCGAAUGGGACCCA [G11A G29U] | 0.12
GGCCGGCAUGAUCCCAGCCUCAUCGCUGGCGCCGGCUGGGCAACAUUCCGAGGGGACCGUCCCCUCGGUAAUGGCGAAUGGGACCCA [G11A C22A] | 0.0443
GGCCGGCAUGAUCCCAGCCUCUUCGCUGGCGCCGGCUGGGCAACAUUCCGAGGGGACCGUCCCCUCGGUAAUGGCGAAUGGGACCCA [G11A C22U] | 0.041
GGCCGGCAUGCUCCCAGCCUCCUCGCUGGCGCCGGCUGGGCCACAUUCCGAGGGGACCGUCCCCUCGGUAAUGGCGAAUGGGACCCA [G11C A42C] | 0.0346
GGCCGGCAUGAUCCCAGCCUCCUCGCUGGCGCCGGCUGGGCAACAUUCCGAGGGGACCGUCCCCUCGGUAAUGGCGAAUGGCACCCA [G11A G82C] | 0.0739
GGCCGGCAUUGUCCCAGCCUCCUCGCUGGCGCCGGCCGGGCAACAUUCCGAGGGGACCGUCCCCUCGGUAAUGGCGAAUGGGACCCA [G10U U37C] | 0.587
GGCCGGCAUGAUCCCAGCCUCCUCGCUGGCGCCGGCUGGGCAACAUUCCGAGGGGACCGUUCCCUCGGUAAUGGCGAAUGGGACCCA [G11A C61U] | 0.529

Variant | self-cleavage
GGCCGGCAUUGUCCCAGCCUCCUCGCUGGCGCCGGCUGGGCAACAUUCCGAGGGGACCGUCCCCUCGGUAAUGGCGAAGGGGACCCA [G10U U79G] | 0.38
GGCCGGCAUGAUCGCAGCCUCCUCGCUGGCGCCGGCUGGGCAACAUUCCGAGGGGACCGUCCCCUCGGUAAUGGCGAAUGGGACCCA [G11A C14G] | 0.0346
GGCCGGCAUGAUCCCAGCCUCCUCGCUGGCGCCGGCUGGGCAACAUUCCGAGGGGACCGUCCCCUCGGAAAUGGCGAAUGGGACCCA [G11A U69A] | 0.166
GGCCGGCAUGAUCCCAGCUUCCUCGCUGGCGCCGGCUGGGCAACAUUCCGAGGGGACCGUCCCCUCGGUAAUGGCGAAUGGGACCCA [G11A C19U] | 0.073
GGCCGGCAUGAUCCCAGCGUCCUCGCUGGCGCCGGCUGGGCAACAUUCCGAGGGGACCGUCCCCUCGGUAAUGGCGAAUGGGACCCA [G11A C19G] | 0.0231
GGCCGGCAUGCUCCCAGCCUCCUCGCUGGCGCCGGCUGGGCAACAUUCCGAGGGGGCCGUCCCCUCGGUAAUGGCGAAUGGGACCCA [G11C A56G] | 0.172
GGCCGGCAUGAUCCCAGCCUCCUCGCUGGCGCCGGCUGGGCAACAUUCCGAGGGGACCGUCCCCUCGGUAAUGGCGAAUGGGUCCCA [G11A A83U] | 0.203
GGCCGGCAUGAUCCCAGCCUCCUCGCUGGCGCCGGCUGGGCAACAUUCCGAGGGGACCGUCCCCUCGGUAAUGGCGAAUGGGGCCCA [G11A A83G] | 0.0831
GGCCGGCAUGCUCCCAGCCUUCUCGCUGGCGCCGGCUGGGCAACAUUCCGAGGGGACCGUCCCCUCGGUAAUGGCGAAUGGGACCCA [G11C C21U] | 0.156
GGCCGGCAUUGUCCCAGCCUCCUCGCUGGCGCCGGCUGGGCAACAUUCCGAGGGGACCGUCCCCACGGUAAUGGCGAAUGGGACCCA [G10U U65A] | 0.665
GGCCGGCAUGAUCCCAGCCUCCUCGCUGGCGCCGGCUGGGCAACAUUCCGAGGGGACCGUCCCCUCGGUAAUGGCGAAUGGGACCCU [G11A A87U] | 0.495
GGCCGGCAUGAUCCCAGCCUCCUCGCUGGCGCCGGCUGGGCAACAUACCGAGGGGACCGUCCCCUCGGUAAUGGCGAAUGGGACCCA [G11A U47A] | 0.249
GGCCGGCAUGAUCCCAGCCUCCUCGCUGGCGCCGGCUGGGCAACACUCCGAGGGGACCGUCCCCUCGGUAAUGGCGAAUGGGACCCA [G11A U46C] | 0.166
GGCCGGCAUGAUCCCAGCCUCCUCGCUGGCGCCGGCUGGGCAAAAUUCCGAGGGGACCGUCCCCUCGGUAAUGGCGAAUGGGACCCA [G11A C44A] | 0.187
GGCCGGCAUGAUCCCAGCCUCCUCGCUGGCGCCGGCUGGGCAACAUUCCGAGGGGACCGUCCCCUCGCUAAUGGCGAAUGGGACCCA [G11A G68C] | 0.256
GGCCGGCAUGAUCCCAGCCUCCUCGCUGGCGCCGGCUGGGCAACAUUCCGAGGGGACCGUCCCCUCCGUAAUGGCGAAUGGGACCCA [G11A G67C] | 0.456
GGCCGGCAUGAUCCCAGCCUCCUCGCUGGCGCCGGCUGGGCAACAUUCCGAGGGGACCGUCCCCUGGGUAAUGGCGAAUGGGACCCA [G11A C66G] | 0.424
GGCCGGCAUGAUCCCAGCCUCCUCGCUGGCGCCGGCUGGGCAACAUUCCGAGGGGACCGUCCCCUAGGUAAUGGCGAAUGGGACCCA [G11A C66A] | 0.308
GGCCGGCAUGAUCCCAGCCUCCUCGCUGGCGCCGGCUGGGCAACAUUCCGAGGGGACCGUCCCCUUGGUAAUGGCGAAUGGGACCCA [G11A C66U] | 0.431
GGCCGGCAUGAUCCCAGCCUCCUCGAUGGCGCCGGCUGGGCAACAUUCCGAGGGGACCGUCCCCUCGGUAAUGGCGAAUGGGACCCA [G11A C26A] | 0.878
GGCCGGCAUGAUCCCAGCCUCCUCGGUGGCGCCGGCUGGGCAACAUUCCGAGGGGACCGUCCCCUCGGUAAUGGCGAAUGGGACCCA [G11A C26G] | 0.99
GGCCGGCAUGCUCCCUGCCUCCUCGCUGGCGCCGGCUGGGCAACAUUCCGAGGGGACCGUCCCCUCGGUAAUGGCGAAUGGGACCCA [G11C A16U] | 0.434

Variant | self-cleavage
GGCCGGCAUGCUCCCAGCCUCCUCGCUGGCGCCGGCUGGGCAACAUUCCGAGGGGACCGUCCCCUCGGUAAUGGCGAAUGGGCCCCA [G11C A83C] | 0.158
GGCCGGCAUGCUCCCAGCCUCCUCGCUGGCGCCGGCUGGGCAACAUUCCGAGGGGACCGUCCCCUCGGUAAUGGCGAAUGGGGCCCA [G11C A83G] | 0.123
GGCCGGCAUGAUCCCAGCCUCCUCGCUGGCGCCGGCUGGGCAACAUUCCGAGGGGACCGUCCCCUCGGUAAUGGUGAAUGGGACCCA [G11A C75U] | 0.144
GGCCGGCAUGAUCCCAGCCUCCUCGCUGGCGCCGGCUGGGCAACAUUCCGAGGGGGCCGUCCCCUCGGUAAUGGCGAAUGGGACCCA [G11A A56G] | 0.346
GGCCGGCAUGCUCCGAGCCUCCUCGCUGGCGCCGGCUGGGCAACAUUCCGAGGGGACCGUCCCCUCGGUAAUGGCGAAUGGGACCCA [G11C C15G] | 0.131
GGCCGGCAUGCUCCCAGCCUCGUCGCUGGCGCCGGCUGGGCAACAUUCCGAGGGGACCGUCCCCUCGGUAAUGGCGAAUGGGACCCA [G11C C22G] | 0.0386
GGCCGGCAUUGUCCCAGCCUCCUCGCUGGCGCCGGCUGGGCAACAUUCCGAGGGGACCGUCCCCUCGGUAAUGGCGAAUGUGACCCA [G10U G81U] | 0.0791
GGCCGGCAUGCUCCCAGCCUCCUCGCUGGCGCCGGCUGGGCAACAUUCCGAGGGGACCGUCCCCUCGGUAAUGGCGAGUGGGACCCA [G11C A78G] | 0.229
GGCCGGCAUGCUCCCAGCCUCCUCGCUGGCGCCGGCUGGGCAACAUUCCGAGGGGACCGUCCCCUCGGUAAUGGCGAUUGGGACCCA [G11C A78U] | 0.0437
GGCCGGCAUGCUCCCAGCCUCCUCGCUGGCGCCGGCUGGGCAGCAUUCCGAGGGGACCGUCCCCUCGGUAAUGGCGAAUGGGACCCA [G11C A43G] | 0.0536
GGCCGGCAUGCUCCCAGCCUCCUCGCUGGCGCCGGCUGGGCAACAUUCCGUGGGGACCGUCCCCUCGGUAAUGGCGAAUGGGACCCA [G11C A51U] | 0.426
GGCCGGCAUGAUCCCAGCCUCCUCGCUGGCGCCGGCUGGGCAACAUUCCGAGGGGACCGUCCCCGCGGUAAUGGCGAAUGGGACCCA [G11A U65G] | 0.305
GGCCGGCAUGAUCCCAGCCUCCUCGCUGGCGCCGGCUGGGCAACAUUCCGAGGGGACCGUCCCCCCGGUAAUGGCGAAUGGGACCCA [G11A U65C] | 0.277
GGCCGGCAUGAUCCCAGCCUCCUCGCUGGCGCCGGCUGGGCAACAUUCCGAGGGGACCGUCCCAUCGGUAAUGGCGAAUGGGACCCA [G11A C64A] | 0.475
GGCCGGCAUGAUCCCAGCCUCCUCGCUGGCGCCGGCUGGGCAACGUUCCGAGGGGACCGUCCCCUCGGUAAUGGCGAAUGGGACCCA [G11A A45G] | 0.403
GGCCGGCAUGAUCCCAGCCUCCUCGCUGGCGCCGGCUGGGCAACCUUCCGAGGGGACCGUCCCCUCGGUAAUGGCGAAUGGGACCCA [G11A A45C] | 0.155
GGCCGGCAUGAUCCCAGCCUCCUCGCUGGCGCCGGCUGGGCAACUUUCCGAGGGGACCGUCCCCUCGGUAAUGGCGAAUGGGACCCA [G11A A45U] | 0.222
GGCCGGCAUGAUCCCAGCCUCCUCGCUGGCGCCGGCUGGGCAACAUUCCGAGGGGACCAUCCCCUCGGUAAUGGCGAAUGGGACCCA [G11A G59A] | 0.38
GGCCGGCAUGAUCCUAGCCUCCUCGCUGGCGCCGGCUGGGCAACAUUCCGAGGGGACCGUCCCCUCGGUAAUGGCGAAUGGGACCCA [G11A C15U] | 0.479
GGCCGGCAUGAUCCCAGCCUCCUCGCUGGCGCCGGCUGGGCAACAUUCCGAGGGAACCGUCCCCUCGGUAAUGGCGAAUGGGACCCA [G11A G55A] | 0.499
